From article PMC4175270

Tests used:
[1] = target: His6-MobC1-129 (plasmid RA3 (IncU), isolated from Aeromonas hydrophila); test: SEC-MALS; gel filtration on Superdex 200 10/300 GL with UV, MALS and refractometer in line; 10 mM Tris pH 8.0, 150 mM NaCl; 0.5 ml of His6-MobC at 0.24 mg ml^-1 or His6-MobC1-129 at 0.04 mg ml^-1; no higher oligomers of MobC detected
[2] = target: His6-MobC1-129 (plasmid RA3 (IncU), isolated from Aeromonas hydrophila); test: cross-linking; His-tagged MobC derivatives (0.1 mg ml^-1) with 0.001%, 0.005% and 0.01% glutaraldehyde; 20% SDS-PAGE, Western blot with anti-His tag antibodies
[3] = target: His6-MobC (WT MobC of plasmid RA3) (plasmid RA3 (IncU), isolated from Aeromonas hydrophila); test: SEC-MALS; gel filtration on Superdex 200 10/300 GL with UV, MALS and refractometer in line; 10 mM Tris pH 8.0, 150 mM NaCl; 0.5 ml of His6-MobC at 0.24 mg ml^-1 or His6-MobC1-129 at 0.04 mg ml^-1; no higher oligomers of MobC detected

Substance	stoichiometry N [1]	stoichiometry N [2]	stoichiometry N [3]
His6-MobC1-129 (domain or fragment)	2	2	–
His6-MobC (WT MobC of plasmid RA3) (natural protein)	–	–	2
